Assay results reported in article PMC8814668, “Mechanism of Atg9 recruitment by Atg11 in the cytoplasm-to-vacuole targeting pathway” (The Journal of Biological Chemistry, 2022).
Where “and” joins values, the source holds several entries; their conditions need not be identical. Equal entries are not always repeated.

T1: EGFP-Atg11 (full-length yeast Atg11) (yeast (S. cerevisiae), UniProt Q12527 1-1178)
T1 construct: Atg11, S. cerevisiae, full length, 135 kDa; also called EGFP tagged Atg11; not shown: EGFP, N-terminal, kept
T1 sequence (looked up): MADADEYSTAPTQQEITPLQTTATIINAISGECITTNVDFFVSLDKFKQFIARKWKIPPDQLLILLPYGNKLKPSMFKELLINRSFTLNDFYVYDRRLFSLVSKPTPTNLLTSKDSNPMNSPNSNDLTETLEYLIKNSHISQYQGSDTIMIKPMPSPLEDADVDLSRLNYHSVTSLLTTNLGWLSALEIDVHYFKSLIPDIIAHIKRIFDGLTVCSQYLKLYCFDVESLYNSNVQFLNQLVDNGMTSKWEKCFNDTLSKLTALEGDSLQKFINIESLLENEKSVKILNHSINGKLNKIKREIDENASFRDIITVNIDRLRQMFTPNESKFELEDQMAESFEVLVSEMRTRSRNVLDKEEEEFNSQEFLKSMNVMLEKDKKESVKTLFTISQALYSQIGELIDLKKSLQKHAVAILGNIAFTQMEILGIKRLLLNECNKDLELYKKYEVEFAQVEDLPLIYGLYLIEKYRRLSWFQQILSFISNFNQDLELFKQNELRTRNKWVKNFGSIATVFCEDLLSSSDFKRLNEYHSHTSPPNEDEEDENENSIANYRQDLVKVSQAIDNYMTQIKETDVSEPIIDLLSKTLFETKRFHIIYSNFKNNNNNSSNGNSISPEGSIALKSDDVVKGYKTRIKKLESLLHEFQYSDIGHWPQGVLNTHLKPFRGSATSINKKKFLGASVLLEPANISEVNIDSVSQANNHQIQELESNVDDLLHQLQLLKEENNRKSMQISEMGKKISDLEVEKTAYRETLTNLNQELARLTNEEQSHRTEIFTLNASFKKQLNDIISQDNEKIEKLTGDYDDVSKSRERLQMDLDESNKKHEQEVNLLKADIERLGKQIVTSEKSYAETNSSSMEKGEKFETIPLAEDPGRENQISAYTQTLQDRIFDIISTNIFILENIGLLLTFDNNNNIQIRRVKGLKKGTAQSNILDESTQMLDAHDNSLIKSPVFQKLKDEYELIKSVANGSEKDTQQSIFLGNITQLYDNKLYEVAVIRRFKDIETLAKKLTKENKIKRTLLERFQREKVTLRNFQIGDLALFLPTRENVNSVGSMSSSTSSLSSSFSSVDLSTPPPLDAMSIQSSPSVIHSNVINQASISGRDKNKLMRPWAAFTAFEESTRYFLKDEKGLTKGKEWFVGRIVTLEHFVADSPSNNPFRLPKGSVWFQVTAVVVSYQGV

B1: Atg9-NTD(1–285) (domain or fragment, S. cerevisiae, UniProt Q12142 1-285, looked up)
chain: MERDEYQLPNSHGKNTFLSRIFGLQSDEVNPSLNSQEMSNFPLPDIERGSSLLHSTNDSREDVDENDLRVPESDQGTSTEEEDEVDEEQVQAYAPQISDGLDGDHQLNSVTSKENVLETEKSNLERLVEGSTDDSVPKVGQLSSEEEEDNEFINNDGFDDDTPLFQKSKIHEFSSKKSNTIEDGKRPLFFRHILQNNRPQRDTQKLFTSSNAIHHDKDKSANNGPRNINGNQKHGTKYFGSATQPRFTGSPLNNTNRFTKLFPLRKPNLLSNISVLNNTPEDRIN
notes: Atg9, S. cerevisiae, N-terminal disordered domain, residues 1-285; The EGFP tag was cleaved with 3C protease for the sample of the resonance assignment; also called Atg9 NTD (residues 1–285); fragment 1 to 285
B2: Atg9-NTD-(1–255)-mCherry, wild type (domain or fragment, S. cerevisiae, UniProt Q12142 1-255, looked up)
chain: MERDEYQLPNSHGKNTFLSRIFGLQSDEVNPSLNSQEMSNFPLPDIERGSSLLHSTNDSREDVDENDLRVPESDQGTSTEEEDEVDEEQVQAYAPQISDGLDGDHQLNSVTSKENVLETEKSNLERLVEGSTDDSVPKVGQLSSEEEEDNEFINNDGFDDDTPLFQKSKIHEFSSKKSNTIEDGKRPLFFRHILQNNRPQRDTQKLFTSSNAIHHDKDKSANNGPRNINGNQKHGTKYFGSATQPRFTGSPLNNT
notes: mCherry is named for the bead assay; also called mCherry-tagged Atg9-NTD; not shown: mCherry, C-terminal, kept
B3: Atg9-NTD (29–255)-mCherry (domain or fragment, S. cerevisiae, UniProt Q12142 29-255, looked up)
chain: VNPSLNSQEMSNFPLPDIERGSSLLHSTNDSREDVDENDLRVPESDQGTSTEEEDEVDEEQVQAYAPQISDGLDGDHQLNSVTSKENVLETEKSNLERLVEGSTDDSVPKVGQLSSEEEEDNEFINNDGFDDDTPLFQKSKIHEFSSKKSNTIEDGKRPLFFRHILQNNRPQRDTQKLFTSSNAIHHDKDKSANNGPRNINGNQKHGTKYFGSATQPRFTGSPLNNT
notes: also called shorter construct of Atg9-NTD; not shown: mCherry, C-terminal, kept

What was measured:
[1] = target: T1, EGFP-Atg11 (full-length yeast Atg11); experiment: NMR titration; 1H-15N HSQC of 0.2 mM labelled Atg9-NTD, unlabelled EGFP-Atg11 added stepwise (0.02, 0.04, 0.08 mM); 20 mM Bis-Tris pH 6, 300 mM NaCl; 298 K, 600 MHz; read-out: loss of peak intensity; settings: both partners purified
[2] = target: T1, EGFP-Atg11 (full-length yeast Atg11); experiment: ITC; Atg9-NTD (300 to 500 μM, syringe) into EGFP-Atg11 (50 to 100 μM, cell); 25 °C; 20 mM Tris pH 7.4, 300 mM NaCl; single binding site; two replicates; settings: both partners purified

Binder | binding result [1] | Kd [2] [nM] | dH [2] [kcal/mol] | stoichiometry N [2]
B1 | binds |  |  | 
B2 |  | 1090 | -5.87 ± 1.34 | 0.931 and 0.94
B3 | binds |  |  | 
